Measured values as given in patent publication US20180339041A1 (Kyowa Kirin, published 2018).

B1: anti-human Gas6 mouse monoclonal antibody KM5321 (KM5321-mKG1 antibody) (antibody, V domains shown)
VH: QIQLVQSGPELKKPGETVKISCRASGYTFTNYGMNWVKQAPGKGLKWMGWINTNTGEPTYTEEFKGRFAFSLETSATTAYLQINDLKNEDTATYFCARDEGWFVYWGQGTLITVSA
VL: ETTVTQSPASLSVATGEKVTIRCITSTDIDDDMNWYQQKPGEPPKLLISEGNTLRPGVPSRFSSSGYGTDFVFTIENTLSEDVADYYCLQTDSVPLTFGAGTKLELK
notes: Hybridoma-derived mouse IgG1, kappa; also called KM5321 antibody
B2: anti-human Gas6 mouse monoclonal antibody KM5320 (KM5320-mKG1 antibody) (antibody, V domains shown)
VH: QIQLVQSGPELKKPGETVKISCKASGYTFTNYGMNWVKQAPGKGLKWMGWINTETGEPTYSDDFKGRFAFSLETSATTAYLQINNLRNEDMATYFCAREDGYYGTLDYWGQGTSVTVSS
VL: SIVMTQTPKFLLVSAGDRVTITCKASQSVSNDVAWYQQKPGQSPKVLIYYASNRYTGVPDRFTGSGYGTDFTFTISTVQAEDLAVYFCQQDYSSPWTFGGGTKLEIK
notes: Hybridoma-derived mouse IgG1, kappa; also called KM5320 antibody

Assays:
[1] = target: T1, C-terminally FLAG-tagged cynomolgus monkey Gas6 recombinant protein (cGas6-F) (cynomolgus monkey, UniProt Q14393 31-678 (human entry), gamma-carboxylated glutamic acid residues in the Gla domain (producer cells co-express rat VKOR and human GGCX); positions not given); test: ELISA: cGas6-F (1 µg/mL) captured on coated anti-FLAG M2 antibody; biotinylated test antibody; streptavidin-HRP/TMB; absorbance 450-570 nm, N=2 (Example 6) [B]
T1 construct: also called cynomolgus monkey Gas6-F; monkey Gas6-F
T1 chain: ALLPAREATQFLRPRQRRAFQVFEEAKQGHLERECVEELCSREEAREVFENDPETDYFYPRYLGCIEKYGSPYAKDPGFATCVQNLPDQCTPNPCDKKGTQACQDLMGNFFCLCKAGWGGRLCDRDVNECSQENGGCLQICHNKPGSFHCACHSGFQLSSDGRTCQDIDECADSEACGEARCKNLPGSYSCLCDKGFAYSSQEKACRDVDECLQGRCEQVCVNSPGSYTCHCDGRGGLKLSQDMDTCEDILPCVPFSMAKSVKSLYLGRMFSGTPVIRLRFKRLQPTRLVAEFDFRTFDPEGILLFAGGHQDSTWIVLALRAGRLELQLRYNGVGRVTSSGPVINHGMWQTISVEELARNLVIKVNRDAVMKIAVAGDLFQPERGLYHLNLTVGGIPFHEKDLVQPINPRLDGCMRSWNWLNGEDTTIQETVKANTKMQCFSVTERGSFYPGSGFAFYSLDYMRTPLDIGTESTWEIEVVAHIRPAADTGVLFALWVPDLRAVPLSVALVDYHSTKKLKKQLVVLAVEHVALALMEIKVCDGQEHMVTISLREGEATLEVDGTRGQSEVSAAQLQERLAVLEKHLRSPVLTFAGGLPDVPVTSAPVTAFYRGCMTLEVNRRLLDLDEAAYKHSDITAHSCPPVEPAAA
Procedure: (§1) First, 2 μg/mL anti-FLAG antibody [Monoclonal ANTI-FLAG M2 antibody produced in mouse (manufactured by Sigma-Aldrich Co. LLC) diluted with PBS (manufactured by Nacalai Tesque, Inc.)] was dispensed at 50 μL/well to a 96-well plate for ELISA (manufactured by Nalge Nunc International), and the plate was left standing overnight at 4° C. for adsorption. After removal of the immobilization solution, 1% BSA-PBS (manufactured by Nacalai Tesque, Inc.) was added thereto at 300 μL/well, and the plate was left standing at room temperature for 1 hour for blocking and washed five times with Tween 20-PBS (manufactured by Wako Pure Chemical Industries Ltd.).
(§2) Each antibody solution was dispensed thereto at 50 μL/well, and the plate was left standing at room temperature for 1 hour. This plate was washed five times with Tween 20-PBS. Then, Streptavidin HRP Conjugate (manufactured by R&D Systems, Inc.) diluted 200-fold with 1% BSA-PBS was dispensed thereto at 50 μL/well, and the plate was left standing at room temperature for 1 hour. This plate was washed five times with Tween 20-PBS, and TMB (manufactured by Sigma-Aldrich Co. LLC) was added thereto at 50 μL/well and reacted. […] The absorbance at a sample wavelength of 450 nm and a reference wavelength of 570 nm (450 nm-570 nm) was measured using a plate reader.

[2] = target: T2, C-terminally FLAG-tagged human Gas6 recombinant protein (hGas6-F) (human, UniProt Q14393 31-678, gamma-carboxylated glutamic acid residues in the Gla domain (producer cells co-express rat VKOR and human GGCX); positions not given); test: ELISA: hGas6-F (1 µg/mL) captured on coated anti-FLAG M2 antibody; biotinylated test antibody; streptavidin-HRP/TMB; absorbance 450-570 nm, N=2 (Example 6) [A]
T2 construct: also called human Gas6-F; human Gas6 protein
T2 sequence: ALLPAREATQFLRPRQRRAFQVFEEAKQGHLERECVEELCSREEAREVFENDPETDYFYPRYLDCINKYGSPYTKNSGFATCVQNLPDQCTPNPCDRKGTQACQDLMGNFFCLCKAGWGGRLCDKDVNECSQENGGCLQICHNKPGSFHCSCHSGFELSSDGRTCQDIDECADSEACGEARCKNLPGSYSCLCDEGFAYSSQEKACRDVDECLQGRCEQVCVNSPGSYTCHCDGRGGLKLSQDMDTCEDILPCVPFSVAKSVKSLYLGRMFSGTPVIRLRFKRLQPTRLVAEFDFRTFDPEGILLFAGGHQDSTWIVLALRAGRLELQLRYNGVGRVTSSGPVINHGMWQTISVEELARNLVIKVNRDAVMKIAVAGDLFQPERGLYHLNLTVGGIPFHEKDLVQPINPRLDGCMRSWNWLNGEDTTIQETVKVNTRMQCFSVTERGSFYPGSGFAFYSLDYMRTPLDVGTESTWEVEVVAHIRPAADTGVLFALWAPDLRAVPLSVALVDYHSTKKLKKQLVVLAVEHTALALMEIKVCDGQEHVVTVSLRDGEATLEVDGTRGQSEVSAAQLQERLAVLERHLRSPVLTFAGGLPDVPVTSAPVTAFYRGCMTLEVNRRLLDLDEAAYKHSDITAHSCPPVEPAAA
Procedure: as §1, §2

| Binder | EC50 (read off the curve) [1] [ng/mL] | EC50 (read off the curve) [2] [ng/mL] |
| --- | --- | --- |
| B1 | ~4 | ~4 |
| B2 | ~4 | ~3 |
